Data from patent publication US20210054094A1 (Hoffmann-La Roche, published 2021).
Numbering of substitutions follows the chain as printed.

B1: P1AE5739 (antibody, V domains shown)
VH: EVQLVESGGGVVQPGRSLRLSCAASGFSFSNYGMAWVRQAPGKGLEWVASISTGGGNTYYRDSVKGRFTISRDNAKNTLYLQMNSLRAEDTAVYYCTRHDRGGLYWGQGTMVTVSS
VL: DIVMTQSPLSLPVTPGEPASISCRSSKSLLHSNGITYVYWYLQKPGQSPQVLIYRMSNLASGVPDRFSGSGSGTDFTLKISRVEAEDVGVYHCGQLLENPYTFGQGTKLEIK
B2: P1AE5734 (antibody, V domains shown)
VH: B1 VH with E1Q, A75S
VL: B1 VL
B3: P1AE5735 (antibody, V domains shown)
VH: B1 VH with E1Q, A75S
VL: B1 VL with Q47K
B4: P1AE5736 (antibody, V domains shown)
VH: B1 VH with E1Q, A75S
VL: B1 VL with V51L, L59R
B5: P1AE5740 (antibody, V domains shown)
VH: B1 VH
VL: B1 VL with Q47K
B6: P1AE5741 (antibody, V domains shown)
VH: B1 VH
VL: B1 VL with V51L, L59R
B7: P1AE5744 (antibody, V domains shown)
VH: B1 VH with E1Q, R61A, A75S
VL: B1 VL
B8: P1AE5745 (antibody, V domains shown)
VH: B1 VH with E1Q, R61A, A75S
VL: B1 VL with Q47K
B9: P1AE5746 (antibody, V domains shown)
VH: B1 VH with E1Q, R61A, A75S
VL: B1 VL with V51L, L59R
B10: P1AE5750 (antibody, V domains shown)
VH: B1 VH with R61A
VL: B1 VL
B11: P1AE5751 (antibody, V domains shown)
VH: B1 VH with R61A
VL: B1 VL with Q47K
B12: P1AE5752 (antibody, V domains shown)
VH: B1 VH with R61A
VL: B1 VL with V51L, L59R
B13: P1AE5755 (antibody, V domains shown)
VH: B1 VH with V11L, R16G
VL: B1 VL
B14: P1AE5756 (antibody, V domains shown)
VH: B1 VH with V11L, R16G
VL: B1 VL with Q47K
B15: P1AE5757 (antibody, V domains shown)
VH: B1 VH with V11L, R16G
VL: B1 VL with V51L, L59R
B16: P1AE5760 (antibody, V domains shown)
VH: B1 VH with V11L, R16G, R61A
VL: B1 VL
B17: P1AE5761 (antibody, V domains shown)
VH: B1 VH with V11L, R16G, R61A
VL: B1 VL with Q47K

Molecular target: human GPRC5D (human, UniProt Q9NZD1 1-345)
Assay: cell-based or functional assay

Chain of human GPRC5D (Q9NZD1 whole entry): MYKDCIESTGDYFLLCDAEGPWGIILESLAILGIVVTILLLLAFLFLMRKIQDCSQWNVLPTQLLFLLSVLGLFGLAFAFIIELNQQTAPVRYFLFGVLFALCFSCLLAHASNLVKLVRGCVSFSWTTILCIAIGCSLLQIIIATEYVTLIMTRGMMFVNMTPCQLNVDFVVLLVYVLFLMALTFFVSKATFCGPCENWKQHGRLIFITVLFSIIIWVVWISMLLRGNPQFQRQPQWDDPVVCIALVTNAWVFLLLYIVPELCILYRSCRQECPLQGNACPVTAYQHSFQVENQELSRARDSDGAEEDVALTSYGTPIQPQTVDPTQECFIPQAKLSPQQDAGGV

Row | CAR-J2 EC50 (PGLALA-CAR-J activation, L363 target cells) [µg/mL] | Binder
1 | 0.0235 | B1
2 | 0.0415 | B2
3 | 0.0821 | B3
4 | 0.00138 | B4
5 | 0.00896 | B5
6 | 0.0014 | B6
7 | 0.00363 | B7
8 | 0.00162 | B8
9 | 0.514 | B9
10 | 0.0206 | B10
11 | 0.00644 | B11
12 | 0.509 | B12
13 | 0.152 | B13
14 | 0.17 | B14
15 | 0.145 | B15
16 | 0.19 | B16
17 | 0.0746 | B17
